One test concerns the target rhC5a_(R37A) (human). As to the kind of experiment: SPR; as a1 (NTA chip, immobilised His-tagged C5a form, D783A_(S512A) flowed, 25 °C, Hepes buffer), but KD from fitting of the response units at equilibrium because of very fast dissociation; triplicate. In general terms: Surface plasmon resonance follows binding to a sensor surface in real time, without labels.
In the next test the target is R37A_(core) (human). The description is as above.
The target of another test is rhC5a_(R46A) (human). Described as above.
For a further test, the target named is R46A_(core) (human). The test is described as above.
A further test concerns the target R40A_(core) (human). The test is described as above.
A further test deals with rhC5a_(R40A) (human). The test is described as above.
The target in another test is rhC5a_(core) (human). As to the kind of experiment: SPR; BIAcore X100, NTA sensor chip with about 20-25 RU of immobilised His-tagged C5a form (ligand), ScpA form flowed as ligate at 30 uL/min, 25 °C, 10 mM Hepes-KOH pH 7.4, 150 mM NaCl, 0.005% Tween 20, 50 uM EDTA; global fit, 1:1 Langmuir model with drifting baseline; triplicate.

Drawing on paper PMC9464890, “Exosite binding modulates the specificity of the immunomodulatory enzyme ScpA, a C5a inactivating bacterial protease” (Computational and Structural Biotechnology Journal, 2022), this text covers Kd, koff and kon for one molecule.

Usually Kd stands for the equilibrium constant for the complex coming apart. One may read the koff as a measure of how fast the partners let go of each other. A word on the kon: it is the rate constant with which the complex forms. High values mean fast association, low ones slow association.

B1: ScpA_(S512A,D783A) (enzyme)
chain: ANTVTEDTPVTEQAVETPQPTAVSEEVPSSKETKTPQTPDDAEETIADDANDLAPQAPAKTADTPATSKATIRDLNDPSQVKTLQEKAGKGAGTVVAVIDAGFDKNHEAWRLTDKTKARYQSKEDLEKAKKEHGITYGEWVNDKVAYYHDYSKDGKTAVDQEHGTHVSGILSGNAPSETKEPYRLEGAMPEAQLLLMRVEIVNGLADYARNYAQAIRDAVNLGAKVINMSFGNAALAYANLPDETKKAFDYAKSKGVSIVTSAGNDSSFGGKTRLPLADHPDYGVVGTPAAADSTLTVASYSPDKQLTETAMVKTDDQQDKEMPVLSTNRFEPNKAYDYAYANRGMKEDDFKDVKGKIALIERGDIDFKDKVANAKKAGAVGVLIYDNQDKGFPIELPNVDQMPAAFISRKDGLLLKDNPQKTITFNATPKVLPTASGTKLSRFSSWGLTADGNIKPDIAAPGQDILSSVANNKYAKLSGTAMSAPLVAGIMGLLQKQYETQYPDMTPSERLDLAKKVLMSSATALYDEDEKAYFSPRQQGAGAVDAKKASAATMYVTDKDNTSSKVHLNNVSDKFEVTVTVHNKSDKPQELYYQATVQTDKVDGKHFALAPKVLYEASWQKITIPANSSKQVTVPIDASRFSKDLLAQMKNGYFLEGFVRFKQDPTKEELMSIPYIGFRGDFGNLSAVEKPIYDSKDGSSYYHEANSDAKDQLDGDGLQFYALKNNFTALTTESNPWTIIKAVKEGVENIEAIESSEITETIFAGTFAKQDDDSHYYIHRHANGEPYAAISPNGDGNRDYVQFQGTFLRNAKNLVAEVLDKEGNVVWTSEVTEQVVKNYNNDLASTLGSTRFEKTRWDGKDKDGKVVANGTYTYRVRYTPISSGAKEQHTDFDVIVDNTTPEVATSATFSTEDRRLTLASKPKTSQPVYRERIAYTYMDEDLPTTEYISPNEDGTFTLPEEAETMEGATVPLKMSDFTYVVEDMAGNITYTPVTKLLEGHS
For the molecule B1, the dissociation constant (Kd) with rhC5a_(R37A) (human) was 2000 nM; with R37A_(core) (human), more than 10000 nM; with rhC5a_(R46A) (human), 669 nM; in the test with R46A_(core) (human), 4330 nM; with R40A_(core) (human), more than 15000 nM; with rhC5a_(R40A) (human) it was 1500 nM. Moreover, in the test with rhC5a_(core) (human), the Kd was 1970 nM. The molecule further had a koff with rhC5a_(core) (human) of 0.0216 s⁻¹. Moreover, in the test with rhC5a_(core) (human), the association rate constant (kon) amounted to 11000 M⁻¹ s⁻¹.
